Experimental data published in IntAct's records for PubMed 24473200.

B1: Nucleotide exchange factor SIL1 (Homo sapiens), Q9H173 (parent)
chain: MAPQSLPSSRMAPLGMLLGLLMAACFTFCLSHQNLKEFALTNPEKSSTKETERKETKAEEELDAEVLEVFHPTHEWQALQPGQAVPAGSHVRLNLQTGEREAKLQYEDKFRNNLKGKRLDINTNTYTSQDLKSALAKFKEGAEMESSKEDKARQAEVKRLFRPIEELKKDFDELNVVIETDMQIMVRLINKFNSSSSSLEEKIAALFDLEYYVHQMDNAQDLLSFGGLQVVINGLNSTEPLVKEYAAFVLGAAFSSNPKVQVEAIEGGALQKLLVILATEQPLTAKKKVLFALCSLLRHFPYAQRQFLKLGGLQVLRTLVQEKGTEVLAVRVVTLLYDLVTEKMFAEEEAELTQEMSPEKLQQYRQVHLLPGLWEQGWCEITAHLLALPEHDAREKVLQTLGVLLTTCRDRYRQDPQLGRTLASLQAEYQVLASLELQDGEDEGYFQELLGSVNSLLKELR

Variants of: B1
Settings: with bip_human HSPA5, P11021
Sequence of bip_human HSPA5, P11021 (P11021 whole entry): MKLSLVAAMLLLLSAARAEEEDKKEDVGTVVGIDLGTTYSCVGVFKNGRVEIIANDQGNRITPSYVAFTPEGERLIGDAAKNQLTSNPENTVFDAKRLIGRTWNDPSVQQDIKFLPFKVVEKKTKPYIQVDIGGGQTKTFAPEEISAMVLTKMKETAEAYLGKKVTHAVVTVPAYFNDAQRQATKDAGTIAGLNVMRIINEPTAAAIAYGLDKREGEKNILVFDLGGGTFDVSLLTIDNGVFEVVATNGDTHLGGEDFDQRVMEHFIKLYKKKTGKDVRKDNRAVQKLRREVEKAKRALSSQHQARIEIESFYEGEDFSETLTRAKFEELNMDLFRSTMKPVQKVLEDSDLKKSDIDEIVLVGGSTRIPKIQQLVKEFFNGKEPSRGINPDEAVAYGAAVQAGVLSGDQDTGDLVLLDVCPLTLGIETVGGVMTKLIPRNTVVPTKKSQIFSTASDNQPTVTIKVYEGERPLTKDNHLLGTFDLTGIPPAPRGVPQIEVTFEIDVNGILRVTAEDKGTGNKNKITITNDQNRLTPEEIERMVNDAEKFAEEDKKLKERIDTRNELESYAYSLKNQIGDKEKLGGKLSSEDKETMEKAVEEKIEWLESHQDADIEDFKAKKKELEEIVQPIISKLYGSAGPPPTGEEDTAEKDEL

| effect of a mutation on the interaction | Variant |
| --- | --- |
| decreasing interaction strength | MAPQSLPSSRMAPLGMLLGLLMAACFTFCLSHQNLKEFALTNPEKSSTKETERKETKAEEELDAEVLEVFHPTHEWQALQPGQAVPAGSHVRLNLQTGEREAKLQYEDKFRNNLKGKRLDINTNTYTSQDLKSALAKFKEGAEMESSKEDKARQAEVKRLFRPIEELKKDFDELNVVIETDMQIMVRLINKFNSSSSSLEEKIAALFDLEYYVHQMDNAQDLLSFGGLQVVINGLNSTEPLVKEYAAFVLGAAFSSNPKVQVEAIEGGALQKLLVILATEQPLTAKKKVLFALCSLLRHFPYAQRQFLKLGGLQVLRTLVQEKGTEVLAVRVVTLLYDLVTEKMFAEEEAELTQEMSPEKLQQYRQVHLLPGLWEQGWCEITAHLLALPEHDAREKVLQTLGVLLTTCRDRYRQDPQLGRTLASLQAEYQVLASLELQDGEDEGYFQELLGSVNSLPKELR [L457P] |
